Read-outs that look alike come from different tables or passages of the source.

Assay [1] has as its target T1, Cys-HLA used for Octet assays following biotinylation at the N-terminal ectopic cysteine (Staphylococcus aureus, UniProt P09616 27-319).
Assay [2] addresses T1, Cys-HLA used for Octet assays following …. As to the kind of experiment: BLI (Octet), biotinylated HLA on streptavidin sensors. On the technique in general: In BLI a coated tip is dipped into the sample, and binding shifts an interference pattern.

B1: VHH antibody Ma7A07 (VHH)
VHH: QVQLVESGGGLVQPGGSLRLSCAASGFTLGDYTLGWFRQAPGKQREGVSSIASSALSIYIADSVKGRFTISRDDAKNTIYLHMNNLKPEDTGVYYCARGVDSWRWVPSAMDLWGKGTLVTVSS
Turning to B1, in assay [1], the Kd (as a rule, a measure of binding affinity in units of concentration) was ≤ 0.01 nM.

B2: VHH antibody Ma7B12 (VHH)
VHH: QVQLVESGGGLVQPGGSLRLSCAASGFTLGDYTLGWFRQAPGKQREGVSSIASSALSIYIADSVKGRFTISRDNAKNTVYLHMNNLKPEDTGVYYCARGIDNWRWVPSAMDLWGKGTQVTVSS
As for B2, the Kd in assay [1] is ≤ 0.01 nM.

B3: VHH antibody Ma7B03 (VHH)
VHH: QVQLVESGGGLVQPGGSLRLSCAASGFTLSNYYVGWFRQAPGKQREGVSSIGSSDLSIYIADSVKGRFTISRDNAKNTIYLHMNNLKPDDTGVYYCARGTDSWRWVPSAMDLWGKGTQVTVSS
As to B3, the Kd in assay [1] is ≤ 0.01 nM.

B4: VHH antibody Ma7A08 (VHH)
VHH: QVQLVESGGGLVQPGGSLTLSCAASGFTLGDYTLGWFRQAPGKQREGVSSIASSVLSVYIADSVKGRFTISRDDAKNTIYLHMNNLKPEDTGVYYCARGVDSWRWVPSAMDLWGKGTLVTVSS
As for B4, the Kd in assay [1] is ≤ 0.01 nM.

B5: VHH antibody Ma7F02 (VHH)
VHH: QVQLVESGGGLVQAGGSLRLSCTVSGSIDSLHTMGWFRQAPGKKRDFVAVVSWSGGNTYYPDYAKGRFTISRDNTKNTVYLQMNSLKPEDTAIYYCAAESGSGNYWKIWEHEFDSWGQGTQVTVSS
For the molecule B5, the Kd in assay [1] was 0.04 nM; in assay [2], ~0.05 nM.

B6: VHH antibody Ma7B01 (VHH)
VHH: QVQLVESGGGLVQAGDSLSLSCAASGRTFSNYAMGWFRQAPGKERHFVAVINQIGDSTWYPDFAKGRFTISRDNAKNTLYLQMNSLKPEDTAVYYCAATDPRSYWRIWPHEYGYWGQGTQVTVSS
In the case of B6, binding in assay [1] was put at a Kd of 0.05 nM.

B7: VHH antibody Ma7E01 (VHH)
VHH: QVQLVESGGGSVQAGDSLSLSCVASERTFSNYAMGWFRQAPGKERHFVAVINPIGEETWYPDFAKGRFTISRDNAKNTLYLQMNSLKPEDTAVYYCAATDPRSYWRIWEHEFDYWGQGTQVTVSS
As for B7, the Kd in assay [1] is ≤ 0.01 nM.

B8: VHH antibody Ma8A05 (VHH)
VHH: QVQLVESGGGLVQPGGSLRLSCAASPASGFTLDLYTIAWFLQAPGKEREGVSAISLSDEITYYSDAVKGRFTISRDSAKNTVFLQMDRLKPEDTGVYYCAIGAFDFILKEADADYWGQGTQVTVSS
In assay [1], B8 registered a dissociation constant Kd of 0.6 nM.

B9: VHH antibody Ma8D05 (VHH)
VHH: QVQLVESGGGLVQPGGSLRLSCAASPASGFTLDLYTIAWFLQAPGKEREGVSAISLSDEITYYSDTVKGRFTISRDSAKNTVFLQMDRLKPEDTGVYYCAIGAFDFILKEADADYWGQGTQVTVSS
B9 registered a Kd in assay [1] of 1 nM.

B10: VHH antibody Ma7C11 (VHH)
VHH: QVQLVESGGGLVRAGGSLRLSCAASGSISSVNGMGWFRQAPGKERLFVAQVSLLDSSTYYADSVKGRFTISRDDAKNTMYLQMNNVRPEETAVYYCAATKLRIGTAFSSEYDYWGQGTQVTVSS
As to B10, in assay [1], binding was put at a Kd of 0.3 nM.

B11: VHH antibody Ma7D06 (VHH)
VHH: QVQLVESGGGLVQAGGSLRLSCAASGSISGIDTMAWFRQIPGKDREFVAVIKWAAGSTWYPDFVKGRFTVSRDNAKNMVYLQMDSVKPEDTAIYYCAAAAGEKYYYRLFPYEYDYWGQGTQVTVSS
Consider B11, for which the Kd in assay [1] came out at 0.06 nM.

B12: VHH antibody Ma8H03 (VHH)
VHH: QVQLVESGGGLVHPGGSLRLSCAASGSSLDHYVIGWFRQVPGKQREGISCISSGGSTNYADSVKGRFTVSRDNVKSTVYLQMNSLAPDDSAEYYCAAQRNLGNFCVLGWLEYDDWGQGTQVTVSS
Regarding B12, in assay [1], the Kd was ≤ 0.01 nM.

B13: VHH antibody Ma8D07 (VHH)
VHH: QVQLVESGGGLVQPGGSLRLSCAASESIYKLNAMGWYRQAPGKELELVTTISSGGSTFYTDPVKGRFTISTDNAKNTVYLQMRSLKPEDTAMYYCAANPTYNHYSARGQGTQVTVSS
Take B13: the Kd in assay [1] stood at 0.8 nM.

B14: VHH antibody Ma8D08 (VHH)
VHH: QVQLVESGGGFVQAGGSLRLSCAASESIYKLNAMGWYRQAPGKELELVTTISSGGSTFYTDPVKGRFTISTDNAKNTVYLQMRSLKPEDTAMYYCAANPTYNHYSARGQGTQVTVSS
In the case of B14, binding in assay [1] was characterised by a dissociation constant (Kd) of 1 nM.

B15: VHH antibody Ma7C02 (VHH)
VHH: QVQLVESGGGLVQAGGSLRLSCAASGRTFSDYAMGWFRQAAGKDRDFVAVITRSGDSTYYPDSTKGRFTISRDNAKNTMYLQMNSLKPEDTARYYCAATDPTNYWRIWEHEFDYWGQGTQVTVSS
B15 gave a Kd in assay [1] of 0.09 nM.

B16: VHH antibody Ma8E03 (VHH)
VHH: QVQLVESGGGLVHPGGSLRLSCAASGSSLDHYVIGWFRQVPGKEREGVSCISRSGGSTNYADSVKGRFTVSRDNVKNMVYLQMNSLEPEDSAEYYCAAQRNLGNFCVLGWLEYDDWGQGTQVTVSS
Regarding B16, in assay [1], the equilibrium dissociation constant (Kd) is ≤ 0.01 nM.

B17: VHH antibody Ma8G02 (VHH)
VHH: QVQLVESGGGLVLPGGSLRLSCAASGSSLDHYVIGWFRQYPGKEREGVSCISRSGGSTNYADSVKGRFTVSRDNVKNMVYLQMNSLEPEDSAEYYCAAQRNLGNFCVLGWVEYDDWGQGTQVTVSS
B17: the Kd in assay [1] is ≤ 0.01 nM.

Values taken from patent publication EP4410371A1 (Max-Planck-Gesellschaft zur Förderung der Wissenschaften …, dated 2024).
